From the supplement of paper PMC9170038

System: MS2 coat protein
Assay: apparent KD of MS2 coat protein; designed switch direction (-1 OFF switch, 1 ON switch): -1; higher = weaker reporter binding
Procedure, shortened: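 Designed RNA switches with common flanks were made on Illumina chips by stalled E. coli RNA polymerase. Titration with SNAP-549-labelled MS2 coat protein doubled from 0.7 or 1.5 nM up to 3 µM. Apparent KD is each design's median over clusters after curve-fitting normalised fluorescence.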

[1] = input ligand: microRNA oligo, concentration not stated
[2] = Eterna round: R95, input ligand: FMN 200 uM
[3] = Eterna round: R95, input ligand: microRNA oligo, concentration not stated
[4] = Eterna round: R95, input ligand: none

Sequence: UACAUACGUCGAUCGAAAGACAUGAGGAUCACCCAUGUACGAUGUCAACGUCAAAUCCAAGUAUUUUGCUCUCGUCA [Eternabot (L2) Solution 32] (Eterna round: R97, puzzle: Sensor, turn-off variant 1)
- apparent KD of MS2 coat protein (input ligand: FMN 200 uM): 15.6 nM
- apparent KD of MS2 coat protein (input ligand: none): 16.1 nM

Sequence: UACAUGAGGAUCACCCAUGUCUUUUCGUGUAUGGUACCCAUCUAGGAUAUCGUGUUAUUUAACCACGAGAAGGAGAGUAUCAAU [MOD5 Solution 21 by JMF] (Eterna round: R96, puzzle: Exclusion NG 3)
- apparent KD of MS2 coat protein (input ligand: FMN 200 uM): 65.6 nM
- apparent KD of MS2 coat protein [1]: 55.9 nM
- apparent KD of MS2 coat protein (input ligand: none): 66.5 nM

Sequence: UACAUGAGGAUCACCCAUGUUUUGUCGUGUAUGGUAUUUAUCUAGGAUAUCAAGUUAUUUAAUUAUGAGAAGGAGAAUAUUAAU [JMF's solution 34] (Eterna round: R96, puzzle: Exclusion NG 3)
- apparent KD of MS2 coat protein (input ligand: FMN 200 uM): 32.8 nM
- apparent KD of MS2 coat protein [1]: 26.6 nM
- apparent KD of MS2 coat protein (input ligand: none): 34.5 nM

Sequence: UACAUGAGGAUCACCCAUGUUUUGUCGUGUAUGGUAUUUAUCUAGGAUAUCAAGUUGUUUAUUUAUGAGAAGGAGAAUAUUAAU [JMF's solution 27] (Eterna round: R96, puzzle: Exclusion NG 3)
- apparent KD of MS2 coat protein [1]: 28.8 nM

Sequence: UACAUGAGGAUCACCCAUGUUUUGUCGUGUAUGGUAUUUAUCUAGGAUAUCAAUCUAUUUAUUUAUGAGAAGGAGAAUAUUAAU [JMF's solution 13] (Eterna round: R96, puzzle: Exclusion NG 3)
- apparent KD of MS2 coat protein (input ligand: FMN 200 uM): 39.6 nM
- apparent KD of MS2 coat protein [1]: 25.7 nM
- apparent KD of MS2 coat protein (input ligand: none): 42.3 nM

Sequence: UACAUGAGGAUCACCCAUGUUUUGUCGUGUAUGGUAUUUAUCUAGGAUAUCAAUUGAUUUAUUUAUGAGAAGGAGAAUAUUAAU [JMF's solution 15] (Eterna round: R96, puzzle: Exclusion NG 3)
- apparent KD of MS2 coat protein (input ligand: FMN 200 uM): 42.5 nM
- apparent KD of MS2 coat protein [1]: 26.8 nM
- apparent KD of MS2 coat protein (input ligand: none): 39.5 nM

Sequence: UACAUGAGGAUCACCCAUGUUUUGUCGUGUAUGGUAUUUAUCUAGGAUAUCAAUUUAGUCAUUUAUGAGAAGGAGAAUAUUAAU [JMF's solution 74] (Eterna round: R96, puzzle: Exclusion NG 3)
- apparent KD of MS2 coat protein (input ligand: FMN 200 uM): 35.5 nM
- apparent KD of MS2 coat protein [1]: 28.6 nM
- apparent KD of MS2 coat protein (input ligand: none): 38.4 nM

Sequence: UACAUGAGGAUCACCCAUGUUUUGUCGUGUAUGGUAUUUAUCUAGGAUAUCAAUUUGUUUAAUUAUGAGAAGGAGAAUAUUAAU [JMF's solution 70] (Eterna round: R96, puzzle: Exclusion NG 3)
- apparent KD of MS2 coat protein (input ligand: FMN 200 uM): 34.3 nM
- apparent KD of MS2 coat protein [1]: 25.8 nM
- apparent KD of MS2 coat protein (input ligand: none): 35.6 nM

Sequence: UACAUGAGGAUCACCCAUGUUUUGUCGUGUAUGGUAUUUAUCUAGGAUAUCAUUCUAUUUAGUUAUGAGAAGGAGAAUAUUAAU [JMF's solution 84] (Eterna round: R96, puzzle: Exclusion NG 3)
- apparent KD of MS2 coat protein [1]: 21.1 nM

Sequence: UACAUGAGGAUCACCCAUGUUUUGUCGUGUAUGGUAUUUAUCUAGGAUAUCAUUUUAUUAAGUUAUGAGAAGGAGAAUAUUAAU [JMF's solution 90] (Eterna round: R96, puzzle: Exclusion NG 3)
- apparent KD of MS2 coat protein (input ligand: FMN 200 uM): 34.8 nM
- apparent KD of MS2 coat protein [1]: 24.9 nM
- apparent KD of MS2 coat protein (input ligand: none): 32.3 nM

Sequence: UACAUGAGGAUCACCCAUGUUUUGUCGUGUAUGGUAUUUAUCUAGGAUAUCAUUUUAUUGAGUUAUGAGAAGGAGAAUAUUAAU [JMF's solution 91] (Eterna round: R96, puzzle: Exclusion NG 3)
- apparent KD of MS2 coat protein (input ligand: FMN 200 uM): 39.8 nM
- apparent KD of MS2 coat protein [1]: 28.5 nM
- apparent KD of MS2 coat protein (input ligand: none): 32.3 nM

Sequence: UACAUGUGAGGAUAUGUACGAAGCCCGGCUGGGCCUCGCAGGCAGAAGGCACAUGAGGAUCACCCAUGUGACCG [Enanvezave] (Eterna round: R96, puzzle: Exclusion 4)
- apparent KD of MS2 coat protein (input ligand: FMN 200 uM): 82.6 nM
- apparent KD of MS2 coat protein [1]: 13.1 nM
- apparent KD of MS2 coat protein (input ligand: none): 17.3 nM

Sequence: UACCGGCGGACCGAGGCUUUUUGCUCGUCUUGUACUACAACAUGAGGAUCACCCAUGUGGUGGUGGUCCGUUGUAGU [JL ViennaUCT Bitein mod 6] (puzzle: Sensor v3, turn-off variant 2)
- apparent KD of MS2 coat protein [2]: 18.9 nM
- apparent KD of MS2 coat protein [3]: 8.16 nM
- apparent KD of MS2 coat protein [4]: 25.4 nM

Sequence: UACGAACUAGGAUAUGCAAAGGGCUCGCUUUCCUUCGAUAAACUUGAGGAUCACCCAAGUAGAAGGAGUUUGUA [Mod 39 - Jieux - Exclusion 2] (Eterna round: R97, puzzle: Exclusion 2)
- apparent KD of MS2 coat protein (input ligand: FMN 200 uM): 30.2 nM
- apparent KD of MS2 coat protein (input ligand: none): 11.4 nM

Sequence: UACUGGACAGGAUAUGUUCUUGAGCACUUGAGGAUCACCCAAGUCAUCAAGAACUCAGGCACAGAAGGGUUUAUGG [salish99_ex5_r4_006] (Eterna round: R97, puzzle: Exclusion 5)
- apparent KD of MS2 coat protein (input ligand: FMN 200 uM): 25.5 nM
- apparent KD of MS2 coat protein (input ligand: none): 14.8 nM

Sequence: UACUUCUGAGGAUAUACAUAGAUUUACAUGAGGAUCACCCAUGUUCCUCUUUGUAUAAAUGUAGAAGGCAGAAGAU [Mat - Exclusion 5 - JL Mod - D74] (Eterna round: R97, puzzle: Exclusion 5)
- apparent KD of MS2 coat protein (input ligand: FMN 200 uM): 95.6 nM
- apparent KD of MS2 coat protein (input ligand: none): 231 nM

Sequence: UAGAGAGAUAAGGAUAUCUAUUAAAUUGUGCGUAGAGAAGGUAUCACAUGAGGAUCACCCAUGUGGUCUAAUAA [Eternabot (L1) Solution 88] (Eterna round: R97, puzzle: Exclusion 6)
- apparent KD of MS2 coat protein (input ligand: FMN 200 uM): 29.7 nM
- apparent KD of MS2 coat protein (input ligand: none): 24.1 nM

Sequence: UAGAUGGGAGGAUAUACGUAGAUACAGAUUCAUGUAGUGCUACAUGAGGAUCACCCAUGUAGAAGGCCCGUCUU [JL-ex2-2.19 Mayanne mod] (puzzle: Exclusion 2)
- apparent KD of MS2 coat protein [3]: 35.2 nM

Sequence: UAGAUGGGAGGAUAUACGUAGUUGCAGGUUCGUGUGGUGCUACAUGAGGAUCACCCAUGUAGAAGGCCCGUCUU [JL-ex2-2.30 Mayanne mod] (puzzle: Exclusion 2)
- apparent KD of MS2 coat protein [3]: 13.3 nM

Sequence: UAGAUGGGAGGAUAUGCGUAGAUGCAGGUUCGUGUGGUGCUACAUGAGGAUCACCCAUGUAGAAGGCCCGUCUU [Mod 7 R3 JL-ex2-2.29 - Jieux - Exclusion 2] (Eterna round: R97, puzzle: Exclusion 2)
- apparent KD of MS2 coat protein (input ligand: FMN 200 uM): 20.7 nM
- apparent KD of MS2 coat protein (input ligand: none): 17.6 nM

Sequence: UAGCAGCGAGGAUAUACAGACAGGUCCAAUACGUGUCUUGGACUUGAGGAUCACCCAAGUAGAAGGCGCCACAG [salish99_ex2_r4_602] (Eterna round: R97, puzzle: Exclusion 2)
- apparent KD of MS2 coat protein (input ligand: FMN 200 uM): 104 nM
- apparent KD of MS2 coat protein (input ligand: none): 62 nM

Sequence: UAGCCUUUAGUUAGGAUAUGAUAUGGGAACCAUUAUCAGAAGGAACAUGAGGAUCACCCAUGUACCGACAGGGA [Eternabot (L2) Solution 9] (Eterna round: R97, puzzle: Brourd's mod of Exclusion 4)
- apparent KD of MS2 coat protein (input ligand: FMN 200 uM): 19.9 nM
- apparent KD of MS2 coat protein (input ligand: none): 12.3 nM

Sequence: UAGGAACGAGGAUAUACACCUGCAAGUGGUGUGGGUACACCACAUGAGGAUCACCCAUGUAGAAGGCGUACCAA [Lelebi] (Eterna round: R97, puzzle: Exclusion 2)
- apparent KD of MS2 coat protein (input ligand: FMN 200 uM): 57.3 nM
- apparent KD of MS2 coat protein (input ligand: none): 12.3 nM

Sequence: UAGGAGUCAGGAUAUGCGAGAGAUUGAAGUAAGGGAUGAGAGCAGAAGGGACAUGAGGAUCACCCAUGUAAGGA [JR_Exclu4_Sub092] (puzzle: Exclusion 4)
- apparent KD of MS2 coat protein [2]: 47.7 nM
- apparent KD of MS2 coat protein [3]: 43.1 nM
- apparent KD of MS2 coat protein [4]: 52 nM

Sequence: UAGUAUCUUCAGGAUAUCAGUGGAAAACACGUAUGAGAAGGGAAGACAUGAGGAUCACCCAUGUAAAGGGUCCG [BotMod 11 - Jieux - Exclusion 6] (Eterna round: R97, puzzle: Exclusion 6)
- apparent KD of MS2 coat protein (input ligand: FMN 200 uM): 579 nM
- apparent KD of MS2 coat protein (input ligand: none): 203 nM

Sequence: UAGUGGGUACGAAGGAGUUGUAUGAGCGGAGGCUCAGUGACAUGAGGAUCACCCAUGUAGCUUUUUGCUCGUCUUAA [JR_SV3TOV2_Sub038] (puzzle: Sensor v3, turn-off variant 2)
- apparent KD of MS2 coat protein [2]: 35.7 nM
- apparent KD of MS2 coat protein [3]: 109 nM
- apparent KD of MS2 coat protein [4]: 32.4 nM

Sequence: UAGUGUUACACAGGAUAUCGCCUCUUAUUACAUGAGGAUCACCCAUGUUUAGUUAGUUACAUGUACGAGAAGGGUGUUGUAGUU [JR_ExcNG2_Sub039] (Eterna round: R96, puzzle: Exclusion NG 2)
- apparent KD of MS2 coat protein (input ligand: FMN 200 uM): 787 nM
- apparent KD of MS2 coat protein [1]: 681 nM
- apparent KD of MS2 coat protein (input ligand: none): 1010 nM

Sequence: UAUAAGGUAGGAUAUACGAAUAAAUAGGGUAGAAUAAUAACACAUGAGGAUCACCCAUGUAGAAGGACCAAGAU [Mat - Exclusion 2 - Mod of my Tesla design - D29] (puzzle: Exclusion 2)
- apparent KD of MS2 coat protein [2]: 44.5 nM
- apparent KD of MS2 coat protein [3]: 20.5 nM
- apparent KD of MS2 coat protein [4]: 24.8 nM

Sequence: UAUACCACAGUUAGGAUAUUCUAAGUAGUAGCUAAGAAGAAGGAACAUGAGGAUCACCCAUGUGGAGCCAGCGU [Eternabot (L1) Solution 99] (Eterna round: R97, puzzle: Brourd's mod of Exclusion 4)
- apparent KD of MS2 coat protein (input ligand: FMN 200 uM): 45.3 nM
- apparent KD of MS2 coat protein (input ligand: none): 18.1 nM

Sequence: UAUAUAUAGUAAGGAUAUGUAAUUAUCUUAUAAACAGAAGGUACUGACAUGAGGAUCACCCAUGUUUUAGUGUGGGCAUGUAGA [JMF's solution 39] (Eterna round: R96, puzzle: Exclusion NG 1)
- apparent KD of MS2 coat protein [1]: 49.8 nM

Sequence: UAUCCUCAAGUGAGGAUAUGACGGUCAAGACGCGUUCAGAAGGCACAUGAGGAUCACCCAUGUGAUAAAGGAAU [Eternabot (L2) Solution 38] (Eterna round: R97, puzzle: Brourd's mod of Exclusion 4)
- apparent KD of MS2 coat protein (input ligand: FMN 200 uM): 91.7 nM
- apparent KD of MS2 coat protein (input ligand: none): 20.6 nM

Sequence: UAUCGGGACUGAGGAUAUUCGUUCGAACACGAAGAAGAAGGUAGUGUCAGGGACAUGAGGAUCACCCAUGUGAUUUCAGUCCUA [JL ViennaUCT Erinle mod 3] (Eterna round: R96, puzzle: Exclusion NG 1)
- apparent KD of MS2 coat protein (input ligand: FMN 200 uM): 149 nM
- apparent KD of MS2 coat protein [1]: 102 nM
- apparent KD of MS2 coat protein (input ligand: none): 165 nM
